Data from patent publication US20130115635A1.

Key:
Peptide N-YEPEA-C [1] = experiment: ITC, 293.1 K
Peptide N-YEPEA-C [2] = experiment: ITC, 303.1 K
Peptide N-YEPEA-C [3] = experiment: ITC, 298.1 K
Peptide N-YEPEA-C [4] = experiment: ITC, 310.1 K

Kd (Peptide N-YEPEA-C [1]): 240 nM | Stoichiometry (Peptide N-YEPEA-C [1]): 0.98 | Kd (Peptide N-YEPEA-C [2]): 460 nM | Stoichiometry (Peptide N-YEPEA-C [2]): 0.94 | Kd (Peptide N-YEPEA-C [3]): 190 nM | Stoichiometry (Peptide N-YEPEA-C [3]): 0.99 | Kd (Peptide N-YEPEA-C [4]): 850 nM | Stoichiometry (Peptide N-YEPEA-C [4]): 0.92
B1: NbSyn2 (VHH)
VHH: QGQLVESGGGSVQAGGSLRLSCAASGIDSSSYCMGWFRQRPGKEREGVARINGLGGVKTAYADSVKDRFTISRDNAENTVYLQMNSLKPEDTAIYYCAAKFSPGYCGGSWSNFGYWGQGTQVTVSS
